From article PMC8172134

Biological target: SARS-CoV spike prefusion stabilized ectodomain trimer (SARS-CoV) (UniProt P59594)
Experiment: cryo-EM structure

For 47D11 Fab fragment, the stoichiometry N (Fab per spike trimer) was 3.
